Measured values taken from US7183387 (Genentech, dated 2007).

T1: human FcγRIIA-R131 α subunit extracellular domain-6His-GST fusion (human, UniProt P12318 34-217)
T1 construct: also called FcγRIIA-Arg131; not shown: glutathione S-transferase (GST)
T1 sequence: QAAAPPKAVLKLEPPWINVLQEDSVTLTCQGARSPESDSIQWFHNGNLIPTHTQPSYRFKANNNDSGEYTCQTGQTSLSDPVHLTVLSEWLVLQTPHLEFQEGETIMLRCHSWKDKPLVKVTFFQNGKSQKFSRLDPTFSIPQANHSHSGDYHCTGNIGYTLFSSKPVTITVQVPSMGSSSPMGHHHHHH

T2: human FcγRIIB α subunit extracellular domain-6His-GST fusion (human, UniProt P31994 43-217)
T2 construct: not shown: glutathione S-transferase (GST)
T2 sequence: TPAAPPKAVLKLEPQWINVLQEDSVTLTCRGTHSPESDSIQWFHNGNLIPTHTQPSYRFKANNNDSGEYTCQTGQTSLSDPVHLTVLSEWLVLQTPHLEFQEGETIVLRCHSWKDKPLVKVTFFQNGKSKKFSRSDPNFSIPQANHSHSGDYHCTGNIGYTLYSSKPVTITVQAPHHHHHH

T3: human FcγRIIA-R131 α subunit extracellular domain-His6-GST fusion (human, UniProt P12318 34-217)
T3 construct: ECD-6His-GST fusion made in 293 cells; also called FcγRIIA-Arg131; not shown: glutathione S transferase (GST)
T3 sequence: T1 sequence

B1: anti-IgE E27 IgG1 variant K290(307)A (antibody)
heavy: not shown
light: DIQLTQSPSSLSASVGDRVTITCRASKPVDGEGDSYLNWYQQKPGKAPKLLIYAASYLESGVPSRFSGSGSGTDFTLTISSLQPEDFATYYCQQSHEDPYTFGQGTKVEIKRTVAAPSVFIFPPSDEQLKSGTASVVCLLNNFYPREAKVQWKVDNALQSGNSQESVTEQDSKDSTYSLSSTLTLSKADYEKHKVYACEVTHQGLSSPVTKSFNRGEC
notes: Fc variant of E27; also called IG2 30; G30
B2: anti-IgE E27 IgG1 variant K290(307)E (antibody)
heavy: not shown
light: B1 light
notes: Fc variant of E27; also called IG2 77
B3: anti-IgE E27 IgG1 variant K290(307)G (antibody)
heavy: not shown
light: B1 light
notes: Fc variant of E27; also called IG2 177
B4: anti-IgE E27 IgG1 variant K290(307)Q (antibody)
heavy: not shown
light: B1 light
notes: Fc variant of E27; also called IG2 73
B5: anti-IgE E27 IgG1 variant K290(307)R (antibody)
heavy: not shown
light: B1 light
notes: Fc variant of E27; also called IG2 78
B6: anti-IgE E27 IgG1 variant K290(307)S (antibody)
heavy: not shown
light: B1 light
notes: Fc variant of E27; also called IG2 75
B7: anti-IgE E27 IgG1 variant K334(353)E (antibody)
heavy: not shown
light: B1 light
notes: Fc variant of E27
B8: anti-IgE E27 IgG1 variant K334(353)G (antibody)
heavy: not shown
light: B1 light
notes: Fc variant of E27; also called IG2 179
B9: anti-IgE E27 IgG1 variant K334(353)H (antibody)
heavy: not shown
light: B1 light
notes: Fc variant of E27
B10: anti-IgE E27 IgG1 variant K334(353)L (antibody)
heavy: not shown
light: B1 light
notes: Fc variant of E27; also called IG2 221
B11: anti-IgE E27 IgG1 variant K334(353)M (antibody)
heavy: not shown
light: B1 light
notes: Fc variant of E27; also called IG2 190
B12: anti-IgE E27 IgG1 variant K334(353)N (antibody)
heavy: not shown
light: B1 light
notes: Fc variant of E27
B13: anti-IgE E27 IgG1 variant K334(353)Q (antibody)
heavy: not shown
light: B1 light
notes: Fc variant of E27
B14: anti-IgE E27 IgG1 variant K334(353)S (antibody)
heavy: not shown
light: B1 light
notes: Fc variant of E27
B15: anti-IgE E27 IgG1 variant K334(353)V (antibody)
heavy: not shown
light: B1 light
notes: Fc variant of E27; also called IG2 220
B16: anti-IgE E27 IgG1 variant K334(353)W (antibody)
heavy: not shown
light: B1 light
notes: Fc variant of E27
B17: anti-IgE E27 IgG1 variant K334(353)Y (antibody)
heavy: not shown
light: B1 light
notes: Fc variant of E27
B18: anti-IgE E27 IgG1 variant P331(350)A (antibody)
heavy: not shown
light: B1 light
notes: Fc variant of E27; also called IG2 65; Pro331Ala
B19: anti-IgE E27 IgG1 variant S298(317)A (antibody)
heavy: not shown
light: B1 light
notes: Fc variant of E27; also called IG2 36; G36
B20: anti-IgE E27 IgG1 variant S298(317)G (antibody)
heavy: not shown
light: B1 light
notes: Fc variant of E27; also called IG2 70
B21: anti-IgE E27 IgG1 variant S298(317)L (antibody)
heavy: not shown
light: B1 light
notes: Fc variant of E27
B22: anti-IgE E27 IgG1 variant S298(317)N (antibody)
heavy: not shown
light: B1 light
notes: Fc variant of E27; also called IG2 72; Ser298Asn
B23: anti-IgE E27 IgG1 variant S298(317)T (antibody)
heavy: not shown
light: B1 light
notes: Fc variant of E27; also called IG2 71; Ser298Thr
B24: anti-IgE E27 IgG1 variant T256(269)A (antibody)
heavy: not shown
light: B1 light
notes: Fc variant of E27; also called IG2 11; Thr256Ala
B25: anti-IgE E27 IgG1 variant T256(269)N (antibody)
heavy: not shown
light: B1 light
notes: Fc variant of E27
B26: E27 IgG1 variant E333(352)A/K334(353)A (antibody)
heavy: not shown
light: B1 light
B27: E27 IgG1 variant S267(280)A/D280(295)A (antibody)
heavy: not shown
light: B1 light
notes: also called IG2 248

Target: T4, human FcγRIIIA-V158 α subunit extracellular domain-His6-GST fusion (human, UniProt P08637 17-208)
T4 construct: ECD-6His-GST fusion made in 293 cells; also called FcγRIIIA-Val158; not shown: glutathione S transferase (GST)
Test: ELISA, IgG monomer, receptor coated

T4 sequence (P08637 other isoform, or with tags, fused parts or gaps, form in doubt): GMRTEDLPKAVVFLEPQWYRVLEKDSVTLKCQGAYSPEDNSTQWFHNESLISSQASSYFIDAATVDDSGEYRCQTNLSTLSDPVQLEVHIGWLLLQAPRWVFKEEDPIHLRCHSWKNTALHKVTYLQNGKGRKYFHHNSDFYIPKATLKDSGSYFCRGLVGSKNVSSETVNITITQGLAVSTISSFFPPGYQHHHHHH

Binder	ratio of binding, variant/native IgG1 (mean)
B1	1.13 ratio
B2	1.5 ratio
B3	2.29 ratio
B4	1.3 ratio
B5	1.24 ratio
B6	1.62 ratio
B7	2.75 ratio
B8	1.28 ratio
B9	2.06 ratio
B10	3.59 ratio
B11	2.08 ratio
B12	1.7 ratio
B13	1.92 ratio
B14	1.82 ratio
B15	2.89 ratio
B16	1.53 ratio
B17	1.72 ratio
B18	0.78 ratio
B19	1.96 ratio
B20	1.88 ratio
B21	0.67 ratio
B22	0.17 ratio
B23	0.75 ratio
B24	1.2 ratio
B25	0.88 ratio

Target: T1, human FcγRIIA-R131 α subunit …
Test: ELISA, IgG:IgE hexamers on receptor-GST

Binder	ratio to native IgG1
B26	0.72
B27	1.54

Target: T5, human FcγRIIIA-F158 α subunit extracellular domain-6His-GST fusion (human, UniProt P08637 17-208)
T5 construct: also called FcγRIIIA-Phe158; not shown: glutathione S-transferase (GST)
Test: ELISA, IgG:IgE hexamers on receptor-GST

T5 sequence (P08637 other isoform, or with tags, fused parts or gaps, form in doubt): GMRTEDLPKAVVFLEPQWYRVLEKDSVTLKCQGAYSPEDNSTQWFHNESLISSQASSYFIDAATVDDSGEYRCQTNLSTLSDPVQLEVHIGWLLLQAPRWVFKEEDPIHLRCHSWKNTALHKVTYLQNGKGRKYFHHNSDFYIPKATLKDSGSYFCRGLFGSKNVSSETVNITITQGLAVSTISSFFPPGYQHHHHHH

Binder	ratio to native IgG1
B26	1.3
B27	1.13

Target: T2, human FcγRIIB α subunit extracellular …
Test: ELISA, IgG:IgE hexamers on receptor-GST

Binder	ratio to native IgG1
B26	0.63
B27	1.96

Target: T4, human FcγRIIIA-V158 α subunit …
Test: ELISA, IgG complex, receptor coated

Binder	ratio of binding, variant/native IgG1 (mean)
B1	1.12 ratio
B2	0.98 ratio
B3	1.11 ratio
B4	1.02 ratio
B5	1.07 ratio
B6	1.05 ratio
B7	1.17 ratio
B8	0.94 ratio
B9	0.97 ratio
B10	0.96 ratio
B11	0.99 ratio
B12	1.19 ratio
B13	1.27 ratio
B14	1.25 ratio
B15	1 ratio
B16	0.96 ratio
B17	0.98 ratio
B18	0.96 ratio
B19	1.02 ratio
B20	0.88 ratio
B21	0.83 ratio
B22	0.66 ratio
B23	0.96 ratio
B24	0.97 ratio
B25	0.95 ratio

Target: T6, human FcγRIIIA-F158 α subunit extracellular domain-His6-GST fusion (human, UniProt P08637 17-208)
T6 construct: ECD-6His-GST fusion made in 293 cells; also called FcγRIIIA-Phe158; not shown: glutathione S transferase (GST)
Test: ELISA, IgG complex, receptor coated

Binder	ratio of binding, variant/native IgG1 (mean)
B1	1.28 ratio
B2	1.3 ratio
B3	1.23 ratio
B4	1.4 ratio
B5	1.08 ratio
B6	1.26 ratio
B7	1.3 ratio
B8	0.88 ratio
B9	1.26 ratio
B10	1.38 ratio
B11	1.35 ratio
B12	1.15 ratio
B13	1.31 ratio
B14	1.19 ratio
B15	1.34 ratio
B16	1.07 ratio
B17	1.31 ratio
B18	1.03 ratio
B19	1.3 ratio
B20	0.46 ratio
B21	0.34 ratio
B22	0.06 ratio
B23	0.89 ratio
B24	1.32 ratio
B25	1.13 ratio

Target: T3, human FcγRIIA-R131 α subunit …
Test: ELISA, IgG complex, receptor coated

Binder	ratio of binding, variant/native IgG1 (mean)
B1	1.29 ratio
B2	1.1 ratio
B3	1.07 ratio
B4	1.17 ratio
B5	1.05 ratio
B6	1.27 ratio
B7	0.74 ratio
B8	0.76 ratio
B9	1.09 ratio
B10	1.05 ratio
B11	1.06 ratio
B12	1.16 ratio
B13	1.08 ratio
B14	1.01 ratio
B15	1.13 ratio
B16	0.94 ratio
B17	1.08 ratio
B18	1.29 ratio
B19	0.4 ratio
B20	0.87 ratio
B21	1.14 ratio
B22	0.08 ratio
B23	0.41 ratio
B24	1.41 ratio
B25	1.03 ratio
